Results: patent publication US20160185837A1 (Medimmune Limited, priority 2013, published 2016)
Several values for one entry are separate records, joined by “and”; a condition that tells them apart may be missing. Identical values can stand only once.

Key:
Type in all cases: cell-based
rat GIP receptor (rGIPr) = biological target: T1, rat GIP receptor (rGIPr) (Rattus norvegicus, UniProt P43219); test: BSA-cAMP assay, cells expressing rat GIP receptor; settings: BSA-cAMP assay; read-out: cAMP activity rGIPr (EC50)
T1 construct: expressed in transfected cells; host or cells: HEK293s or CHO cells
T1 sequence (P43219 19-455): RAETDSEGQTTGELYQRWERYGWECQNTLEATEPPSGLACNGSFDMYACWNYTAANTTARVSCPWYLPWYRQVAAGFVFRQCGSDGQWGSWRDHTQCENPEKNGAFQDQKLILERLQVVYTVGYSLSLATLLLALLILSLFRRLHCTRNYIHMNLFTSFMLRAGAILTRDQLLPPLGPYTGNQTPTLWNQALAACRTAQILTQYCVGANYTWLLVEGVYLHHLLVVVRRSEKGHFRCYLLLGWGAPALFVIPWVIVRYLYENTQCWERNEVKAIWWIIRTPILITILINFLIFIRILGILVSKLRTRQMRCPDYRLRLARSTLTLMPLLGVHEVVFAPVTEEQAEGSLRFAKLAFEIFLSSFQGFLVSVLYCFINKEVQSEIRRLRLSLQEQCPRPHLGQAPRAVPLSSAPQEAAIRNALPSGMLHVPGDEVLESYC
Procedure: (§1) One basic cAMP assays was performed, differing in the medium used for the assay, the “BSA-cAMP assay”:
(§2) BSA-based assay medium: 0.1% bovine serum albumin (BSA) in
(§3) In certain aspects, the assay can also be carried out in medium supplemented with serum albumin that corresponds to the receptor being tested, e.g., human serum albumin for testing cAMP activity at hGIPr or hGLP-1r, rat serum albumin for testing cAMP activity at rGIPr or rGLP-1r, and so on. […] All sample dilutions were made in duplicate.
(§4) A frozen cryo-vial of cells expressing the receptor of interest was thawed rapidly in a water-bath, transferred to pre-warmed assay media and spun at 240×g for 5 minutes. Cells were re-suspended in assay buffer at an optimized concentration (e.g., hGLP-1r and hGIPr cells at 0.5×10^5 cells/ml).
(§5) To this, 5 μL cell suspension was added and the plates incubated at room temperature for 30 minutes.
(§6) cAMP levels were measured using a commercially available cAMP dynamic 2 HTRF kit (Cisbio, Cat #62AM4PEJ), following the two step protocol as per manufacturer's recommendations. In brief; anti-cAMP cryptate (donor fluorophore) and cAMP-d2 (acceptor fluorophore) were made up separately by diluting each 1/20 in conjugate & lysis buffer provided in the kit. 5 μL anti-cAMP cryptate was added to all wells of the assay plate, and 5 μL cAMP-d2 added to all wells except non-specific binding (NSB) wells, to which conjugate and lysis buffer was added. […] Data was transformed to % Delta F as described in manufacturer's guidelines and then transformed to percent activation of maximal native agonist response and analysed by 4-parameter logistic fit to determine EC50 values.
(§7) We used unconstrained 4 parameter logistic fit of data, curve mid-point to determine EC50. This was tested on two occasions, not two batches.
(§8) In order to be able to carry out in vivo studies in rodents, IP088 was tested for potency against the mouse receptors mGIPr and mGLP-1r as well as the rat receptors rGIPr and rGLP-1r, using cells expressing the respective receptors in the cAMP assay described above.

[1] = biological target: T2, rat GLP-1 receptor (rGLP-1r) (Rattus norvegicus, UniProt P32301); test: BSA-cAMP assay, cells expressing rat GLP-1 receptor; settings: BSA-cAMP assay; read-out: cAMP activity rGLP1r (EC50)
T2 construct: expressed in transfected cells; host or cells: HEK293s or CHO cells
T2 sequence (P32301 22-463): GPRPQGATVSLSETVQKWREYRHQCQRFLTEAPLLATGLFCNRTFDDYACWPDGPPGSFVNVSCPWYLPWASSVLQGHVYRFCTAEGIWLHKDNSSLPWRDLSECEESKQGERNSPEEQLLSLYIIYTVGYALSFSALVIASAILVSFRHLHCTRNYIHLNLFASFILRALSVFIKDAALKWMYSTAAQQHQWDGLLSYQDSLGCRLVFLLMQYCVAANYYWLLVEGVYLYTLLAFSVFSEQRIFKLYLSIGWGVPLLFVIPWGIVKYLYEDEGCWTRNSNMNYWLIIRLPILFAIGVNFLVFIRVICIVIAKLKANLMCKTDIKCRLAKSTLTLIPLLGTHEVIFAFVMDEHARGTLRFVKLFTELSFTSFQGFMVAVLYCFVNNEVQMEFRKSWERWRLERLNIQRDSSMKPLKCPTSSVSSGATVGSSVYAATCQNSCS
Procedure: as §1, §2, §3, §4, §5, §6, §7, §8

[2] = biological target: T3, mouse GIP receptor (mGIPr) (Mus musculus, UniProt Q0P543); test: BSA-cAMP assay, cells expressing mouse GIP receptor; settings: BSA-cAMP assay; read-out: cAMP activity mGIPr (EC50)
T3 construct: expressed in transfected cells; host or cells: HEK293s or CHO cells
T3 sequence (Q0P543 19-460): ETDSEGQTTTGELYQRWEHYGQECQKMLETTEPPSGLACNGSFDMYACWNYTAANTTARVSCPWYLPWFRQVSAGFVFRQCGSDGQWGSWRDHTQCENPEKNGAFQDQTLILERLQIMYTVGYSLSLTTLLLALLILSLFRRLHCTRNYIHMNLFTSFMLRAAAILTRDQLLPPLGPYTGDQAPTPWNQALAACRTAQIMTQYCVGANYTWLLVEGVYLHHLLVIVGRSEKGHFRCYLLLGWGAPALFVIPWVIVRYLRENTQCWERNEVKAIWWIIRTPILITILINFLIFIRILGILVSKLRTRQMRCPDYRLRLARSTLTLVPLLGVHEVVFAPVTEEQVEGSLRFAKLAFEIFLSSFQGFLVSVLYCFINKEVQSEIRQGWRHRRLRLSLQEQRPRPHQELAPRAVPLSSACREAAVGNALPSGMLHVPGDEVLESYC
Procedure: as §1, §2, §3, §4, §5, §6, §7, §8

[3] = biological target: T4, mouse GLP-1 receptor (mGLP-1r) (Mus musculus, UniProt O35659); test: BSA-cAMP assay, cells expressing mouse GLP-1 receptor; settings: BSA-cAMP assay; read-out: cAMP activity mGLP1r (EC50)
T4 construct: expressed in transfected cells; host or cells: HEK293s or CHO cells
T4 sequence (O35659 22-463): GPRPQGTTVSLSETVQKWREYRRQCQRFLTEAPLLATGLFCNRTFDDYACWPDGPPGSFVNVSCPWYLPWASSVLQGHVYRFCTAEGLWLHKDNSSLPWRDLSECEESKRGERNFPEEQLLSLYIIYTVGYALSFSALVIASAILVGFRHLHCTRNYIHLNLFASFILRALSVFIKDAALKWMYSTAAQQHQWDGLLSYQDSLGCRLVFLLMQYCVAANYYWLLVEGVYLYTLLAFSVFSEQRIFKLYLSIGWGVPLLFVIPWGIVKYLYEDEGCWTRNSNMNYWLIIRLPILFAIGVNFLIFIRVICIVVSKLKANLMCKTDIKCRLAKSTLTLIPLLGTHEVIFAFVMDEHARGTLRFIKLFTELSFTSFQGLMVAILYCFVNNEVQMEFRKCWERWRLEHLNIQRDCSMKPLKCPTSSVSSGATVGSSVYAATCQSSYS
Procedure: as §1, §2, §3, §4, §5, §6, §7, §8

[4] = biological target: T5, human GIP receptor (hGIPr) (Homo sapiens, UniProt P48546); test: BSA-cAMP assay, cells expressing human GIP receptor; settings: BSA-cAMP assay; batch 1 unless a batch is given; read-out: cAMP activity hGIPr (EC50)
T5 construct: expressed in transfected cells
T5 sequence (P48546 22-466): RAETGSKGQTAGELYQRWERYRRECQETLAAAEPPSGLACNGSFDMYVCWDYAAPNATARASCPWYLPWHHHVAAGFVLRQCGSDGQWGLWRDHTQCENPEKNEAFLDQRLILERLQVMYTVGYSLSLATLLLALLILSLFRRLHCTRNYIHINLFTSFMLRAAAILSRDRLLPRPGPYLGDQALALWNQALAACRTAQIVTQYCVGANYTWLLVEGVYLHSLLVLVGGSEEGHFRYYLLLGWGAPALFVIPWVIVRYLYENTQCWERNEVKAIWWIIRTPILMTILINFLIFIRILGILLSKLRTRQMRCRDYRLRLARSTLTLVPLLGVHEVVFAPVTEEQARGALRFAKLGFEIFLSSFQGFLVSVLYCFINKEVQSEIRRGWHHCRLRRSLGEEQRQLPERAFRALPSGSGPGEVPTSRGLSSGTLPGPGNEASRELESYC
Procedure: For human GIPr, two different lines were used, shown as “hGIPr” and “hGIPr (C3)” in Table 11.
as §1, §2, §3, §4, §5, §6, §7

[5] = biological target: T6, human GLP-1 receptor (hGLP-1r) (Homo sapiens, UniProt P43220); test: BSA-cAMP assay, cells expressing human GLP-1 receptor; settings: BSA-cAMP assay; batch 1 unless a batch is given; read-out: cAMP activity hGLP1r (EC50)
T6 construct: expressed in transfected cells
T6 sequence (P43220 24-463): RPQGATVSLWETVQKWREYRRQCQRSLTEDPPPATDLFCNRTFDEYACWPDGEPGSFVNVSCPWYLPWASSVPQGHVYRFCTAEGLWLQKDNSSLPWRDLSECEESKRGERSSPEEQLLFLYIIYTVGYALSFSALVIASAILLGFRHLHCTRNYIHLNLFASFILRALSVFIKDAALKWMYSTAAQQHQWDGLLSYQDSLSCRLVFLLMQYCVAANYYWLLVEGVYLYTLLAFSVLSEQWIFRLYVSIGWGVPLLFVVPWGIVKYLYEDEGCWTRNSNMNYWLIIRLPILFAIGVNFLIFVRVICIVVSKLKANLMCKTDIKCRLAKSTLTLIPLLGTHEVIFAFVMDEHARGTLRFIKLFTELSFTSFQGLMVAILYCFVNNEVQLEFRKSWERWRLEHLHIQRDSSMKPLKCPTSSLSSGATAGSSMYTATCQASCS
Procedure: as §1, §2, §3, §4, §5, §6, §7

[6] = biological target: T7, human glucagon receptor (GCGr) (Homo sapiens, UniProt P47871); test: BSA-cAMP assay, cells expressing human glucagon receptor; settings: batch 1 unless a batch is given, read-out: cAMP activity hGCGr (EC50)
T7 construct: expressed in transfected cells; host or cells: HEK293s or CHO cells
T7 sequence (P47871 26-477): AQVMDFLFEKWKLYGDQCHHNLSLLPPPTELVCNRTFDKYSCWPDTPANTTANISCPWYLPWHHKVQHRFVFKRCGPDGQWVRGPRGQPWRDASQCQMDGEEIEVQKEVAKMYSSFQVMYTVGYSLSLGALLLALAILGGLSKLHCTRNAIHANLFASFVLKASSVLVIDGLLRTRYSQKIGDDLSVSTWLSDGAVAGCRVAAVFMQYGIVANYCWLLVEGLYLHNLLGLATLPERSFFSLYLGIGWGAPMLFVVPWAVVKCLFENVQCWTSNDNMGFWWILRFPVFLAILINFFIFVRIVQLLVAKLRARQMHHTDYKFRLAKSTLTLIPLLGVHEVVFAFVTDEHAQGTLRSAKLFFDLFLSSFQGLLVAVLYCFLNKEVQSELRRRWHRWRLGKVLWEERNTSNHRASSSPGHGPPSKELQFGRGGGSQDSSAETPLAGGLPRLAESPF
Procedure: as §1, §2, §3, §4, §5, §6, §7

Molecule | EC50 (rat GIP receptor (rGIPr)) | EC50 [1] | EC50 [2] | EC50 [3] | EC50 [4] | EC50 [5] | EC50 [6]
IP209 (protein, /note=“Description of Artificial Sequence Synthetic Peptide-linker-hinge polypeptide”) YSEGTFTSDYSSYMERQAIDEFIAWLLKGGAAAGGSGSTASSGSGSATGGGGAATHTCPPCPAPEF |  | 0.075 nM and 0.091 nM |  | 0.84 nM and 1.6 nM |  | 0.23 nM and 0.2 nM | > 6270 nM
IP223 (protein, /note=“Description of Artificial Sequence Synthetic Peptide-linker-hinge polypeptide”) YSEGTFTSDVSSYMEEEAIDEFIAWLLKGGAAAGGSGSTASSGSGSATGGGGAATHTCPPCPAPEF | 72 nM | 18 nM |  | 80 nM | 2.5 nM | 16 nM | 
IP250 (protein, /note=“Description of Artificial Sequence Synthetic Peptide-linker-hinge polypeptide”) YSEGTFTSDVSIAMDRQAIDEFIAWLLKGGAAAGGSGSTASSGSGSATGGGGAATHTCPPCPAPEF | 5.3 nM | 2.2 nM | 35 nM | 22 nM | 0.11 nM | 1.1 nM | 
IP203 (protein, /note=“Description of Artificial Sequence Synthetic Peptide-linker-hinge polypeptide”) HGEGTFTSDVSSYLEGQAAKEFIAWLVKGGAAAGGSGSTASSGSGSATGGGGAATHTCPPCPAPEF |  |  |  |  | 110 nM | 0.042 nM | > 650 nM
IP207 (protein, /note=“Description of Artificial Sequence Synthetic Peptide-linker-hinge polypeptide”) YAEGTFISDYSIAMDKIHQQDFVNWLLAQKGKKNDWKHNITQAAAGGSGSTASSGSGSATGGGGAATHTCPPCPAPELL |  |  |  |  | 0.0085 nM and 0.0078 nM | 4100 nM | 900 nM
IP146 (protein, /note=“Description of Artificial Sequence Synthetic Peptide-linker-hinge polypeptide”) HGEGTFTSDVSSYLEGQAAKEFIAWLVKGAAAGGSGSTASSGSGSATGGGGAACPPCPAPEF |  |  |  |  | 83 nM | 0.049 nM | 650 nM
IP015 (protein, /note=“Description of Artificial Sequence Synthetic Peptide-linker-hinge polypeptide”) HGEGTFTSDVSSYLEGQAAKEFIAWLVKGAAAGGSGSTASSGSGSATGGGGAATHTCPPCPAPEF |  | 0.014 nM |  | 0.13 nM | 27 nM | 0.041 nM and 0.023 nM and 0.038 nM | 

The next lines start with the values.

EC50 (rat GIP receptor (rGIPr)) | EC50 [1] | EC50 [2] | EC50 [3] | EC50 [4] | EC50 [5] | EC50 [6] | Molecule
2.3 nM | 0.06 nM | 34 nM | 0.85 nM | 0.079 nM | 0.12 nM |  | IP170 (protein, /note=“Description of Artificial Sequence Synthetic Peptide-linker-hinge polypeptide”) YSEGTFTSDVSSYMERQAIDEFIAWLLKGGAAAGGSGSTASSGSGSATGGGGAATHTCPPCPAPEF
0.27 nM | 0.061 nM | 7.5 nM | 1 nM | 0.025 nM | 0.2 nM |  | IP226 (protein, /note=“Description of Artificial Sequence Synthetic Peptide-linker-hinge polypeptide”) YSEGTFTSDVSKLLERQAIDEFIAWLLKGGAAAGGSGSTASSGSGSATGGGGAATHTCPPCPAPEF
 |  |  |  | 0.0038 nM | 500 nM | 350 nM | IP188 (protein, /note=“Description of Artificial Sequence Synthetic Peptide-linker-hinge polypeptide”) YSEGTFISDYSIAMDKIHQQDFVNWLLAQKAPPGGGGGSGGGGSGGGGSGGGGSATHTCPPCPAPEF
